Measured values: US20160264650A1 (Regeneron, published 2016)

Columns and labels:
[1] = target: T1, Clostridium difficile toxin B, soluble full-length (TechLab) (Clostridium difficile, UniProt P18177 2-2366); assay: cell-based or functional assay
[2] = target: T1, Clostridium difficile toxin B, soluble …; assay: SPR Biacore T200, 37C, mAb capture
[3] = target: T2, C-term receptor Binding Domain (CBD) of toxin B (Clostridium difficile, UniProt P18177 1851-2366); assay: SEC (Superose 6) of CBD and mAb mixture
T2 construct: also called CBD-B

[4] = target: T3, CBD-toxin A-Fc (Clostridium difficile, UniProt P16154 1848-2710); assay: SPR Biacore, CBD-A-Fc captured, 500 nM mAb flowed
T3 construct: also called CBD-A; C-term Toxin A

[5] = target: T4, CBD-toxin B-Fc (Clostridium difficile, UniProt P18177 1851-2366); assay: SPR Biacore, CBD-B-Fc captured, 500 nM mAb flowed
T4 construct: also called CBD-B; C-term Toxin B

[6] = target: T3, CBD-toxin A-Fc; assay: SPR Biacore, mAb captured, 100 nM CBD-A-Fc flowed
[7] = target: T3, CBD-toxin A-Fc; assay: SPR Biacore, mAb capture and CBD-Fc capture formats
[8] = target: T4, CBD-toxin B-Fc; assay: as above

| Binder | IC50, Vero cell viability (neutralization), Trial 1, 0.1 pM Toxin B [1] | IC50, Vero cell viability (neutralization), Trial 2, 0.1 pM Toxin B [1] | IC50, Vero cell viability (neutralization), Trial 3, 0.03 pM Toxin B [1] | Kd [2] | T½ [2] | koff [2] | kon [2] | binding result [3] | binding (RU) [4] | binding (RU) [5] | binding (RU) [6] | binding result [7] | binding result [8] |
| --- | --- | --- | --- | --- | --- | --- | --- | --- | --- | --- | --- | --- | --- |
| H1H3339P (antibody, V domains shown) VH: EVQLVESGGGLVQPGGSLRLSCAVSGFTFSIYAMSWVRQAPGKGLEWVSAISGSGDKTYYADSVKGRFTISRDNSKNTLYLQMNSLRAEDTAVFYCARGWELLNYWGQGTLVTVSS VL: DIQMTQSPSSLSASVGDRVTITCRASLDISNFLAWFQQKPGTAPKSLIYSASSLRTGVPSKFSGSGSGTDFTLTISSLQPEDFATYYCQQYSSYPPTFGPGTKVDIKR | 480 pM | 270 pM | 90 pM | 1.95 nM | 22 min | 0.000537 s⁻¹ | 276000 M⁻¹ s⁻¹ | no binding (tested: CBD at ~500 nM, CBD:Mab 1:5 and 1:20) | 2 RU | -2 RU | 19 RU | no binding | – |
| H1H3343P (antibody, V domains shown) VH: EVQLVESGGGLVQPGGSLRLSCVASGFNFRIYAMSWVRQAPGKGPEWVSGISGSGDNTYYAASVKGRFTVSRDNSKNTLYLQMTSLRAEDTAVFYCARGWELLNYWGQGTLVTVSS VL: DIQMTQSPSSLSASVGDRVTITCRASLDIGNFLAWFQQKPGTAPKSLIYSASSLQTGVPSKFSGSGSGTDFTLTISSLQPEDFATYYCQQYNSYPPTFGPGTKVDIKR | 280 pM | 200 pM | 50 pM | 1.58 nM | 26 min | 0.000448 s⁻¹ | 284000 M⁻¹ s⁻¹ | no binding (tested: CBD at ~500 nM, CBD:Mab 1:5 and 1:20) | 3 RU | -4 RU | 11 RU | no binding | – |
| H1H3344P (antibody, V domains shown) VH: EVQLVESGGGLVQPGGSLRLSCAASGFTFKIYAMSWVRQGPGKGLEWVSAISGNGDKTYYTDSVQGRFTISRDNSKNTLFLQMNSLRAEDTAIYYCARGWELLNYWGQGTLVTVSS VL: DIQMTQSPSSLSASIGDRVTITCRASQDISNSLAWFQQKPGKAPKSLIYAASSLQSGVPSRFSGSGSGTDFTLTISSLQPEDFATYYCQQYIPFPPTFGPGTKVDIKR | 580 pM | 400 pM | 40 pM | 4.24 nM | 13 min | 0.000865 s⁻¹ | 204000 M⁻¹ s⁻¹ | no binding (tested: CBD at ~500 nM, CBD:Mab 1:5 and 1:20) | 5 RU | -2 RU | 5 RU | no binding | – |
| H1H3347P (antibody, V domains shown) VH: EVQLVESGGGLVQPGGSLRLSCVASGFTFTSYAMSWVRQAPGRGLQWVSAIGGSGDSIYYADSVKGRFTISRDNSKNTLYLQMDSLRAEDTAVYYCARGWELLNYWGQGTLVTVSS VL: DIQMTQSPSSLSASVGDRVTITCRASQDIGNFLAWFQQKPGKAPKSLIYAASSLKSGVPSKISGSGSGTDFTLTINSLQPEDFATYYCQQYNIYPPTFGPGTKVDIKR | 130 pM | 90 pM | 25 pM | 2.4 nM | 14 min | 0.000813 s⁻¹ | 339000 M⁻¹ s⁻¹ | no binding (tested: CBD at ~500 nM, CBD:Mab 1:5 and 1:20) | -13 RU | – | 42 RU | – | no binding |
